Data as given in patent US20140056903A1 (Regeneron, published 2014).

Key:
[1] = biological target: T1, monkey GFRα3 expressed with a C-terminal myc-myc-hexahistidine tag (monkey (Mf), UniProt O60609 32-374 (human entry), limits assumed); assay: SPR, Ab captured, 37C
T1 construct: also called MfGFRα3-mmh; MfGFRα3-mmH
T1 chain: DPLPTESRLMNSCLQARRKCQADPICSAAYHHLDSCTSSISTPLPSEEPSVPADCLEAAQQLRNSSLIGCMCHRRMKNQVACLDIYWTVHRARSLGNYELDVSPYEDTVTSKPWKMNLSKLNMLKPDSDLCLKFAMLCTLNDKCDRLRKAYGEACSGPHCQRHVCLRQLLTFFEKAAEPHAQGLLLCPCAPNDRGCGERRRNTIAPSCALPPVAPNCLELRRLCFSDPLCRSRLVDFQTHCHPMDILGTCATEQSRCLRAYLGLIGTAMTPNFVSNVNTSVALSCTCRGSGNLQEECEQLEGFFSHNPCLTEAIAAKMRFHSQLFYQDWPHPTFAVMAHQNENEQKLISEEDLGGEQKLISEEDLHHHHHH
Outline: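 Captured antibodies on a CM5 sensor were exposed to GFRα3 in HBS-EP or PBS/0.05% P20. The mmh-tagged proteins ran at 200–7.4 nM and the hFc-tagged protein at 100–3.7 nM. Rate constants were obtained by a 1:1 fit.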

[2] = biological target: T1, monkey GFRα3 expressed with a …; assay: SPR, Ab captured, 25C
Description: Antibodies were tested for binding to human GFRα3 expressed with either a C-terminal myc-myc-hexahistidine tag (hGFRα3-mmh; SEQ ID: 370, a C-terminal hFc tag (hGFRα3-hFc; SEQ ID:371), or a C-terminal mFc tag (hGFRα3-mFc; SEQ ID:372), as well as monkey GFRα3 expressed with a C-terminal myc-myc-hexahistidine tag (MfGFRα3-mmh; SEQ ID:373). Anti-GFRα3 antibodies were captured on either a goat anti-mouse IgG polyclonal antibody (GE Healthcare, #BR-1008-38) or a mouse anti-human IgG monoclonal antibody (GE Healthcare, #BR-1008-39) surface created through direct amine coupling to a Biacore CM5 sensor chip. Kinetic experiments were carried out using HBS-EP (10 mM HEPES, 150 mM NaCl, 3 mM EDTA, 0.05% Surfactant P20, at pH 7.4) or PBS buffer containing 0.05% v/v surfactant P20 as both the running buffer and the sample buffer. Binding to human GFRα3-mmh or monkey GFRα3-mmh was evaluated by injecting several concentrations ranging from 200 to 7.4 nM (3-fold dilutions) across the captured antibody surface. Binding to human GFRα3-mFc or human GFRα3-hFc was evaluated by injecting several concentrations ranging from 100 to 3.7 nM (3-fold dilutions) across the captured antibody surface. Antibody-antigen association was monitored for up to 4 minutes, while dissociation in buffer was monitored for up to 20 minutes. Kinetic association (kₐ) and dissociation (kd) rate constants were determined by processing and fitting the data to a 1:1 binding model using Scrubber 2.0c curve fitting software. Binding dissociation equilibrium constants (KD) and dissociative half-lives (t_{1/2}) were calculated from the kinetic rate constants as: KD (M)=kd/kₐ and t_{1/2} (min)=[ln 2/(60*kd)].

[3] = biological target: T2, human GFRα3 on HEK293/hGFRα3/hRET/SRE-luc cells (human, UniProt O60609 32-382); assay: cell-based or functional assay
T2 sequence: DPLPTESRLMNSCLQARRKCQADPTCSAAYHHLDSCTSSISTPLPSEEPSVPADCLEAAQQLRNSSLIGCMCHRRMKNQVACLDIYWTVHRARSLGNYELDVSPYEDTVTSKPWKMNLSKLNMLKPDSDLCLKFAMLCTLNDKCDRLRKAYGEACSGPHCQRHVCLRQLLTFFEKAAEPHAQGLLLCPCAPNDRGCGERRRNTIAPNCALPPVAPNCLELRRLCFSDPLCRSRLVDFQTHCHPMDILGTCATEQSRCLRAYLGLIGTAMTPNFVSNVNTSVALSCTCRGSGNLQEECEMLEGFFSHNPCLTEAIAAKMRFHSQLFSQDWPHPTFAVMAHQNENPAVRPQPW

[4] = biological target: T3, human GFRα3 expressed with a C-terminal myc-myc-hexahistidine tag (human, UniProt O60609 32-374, biotinylated (sites not given) in ELISA format 2 and in the Octet cross-competition; not in SPR); assay: Octet cross-competition; biotin-hGFRα3-mmH pre-saturated with first antibody H4H2294S
T3 construct: also called hGFRα3-mmh; hGFRα3-mmH
Description: (§1) A cross-competition assay was conducted to assess the ability of select antibodies to compete with one another for binding to human GFRα3 using an Octet RED384 biosensor (Fortebio Inc.). The entire experiment was performed at 25° C. with the flow rate of 1000 rpm in Octet HBST buffer (0.01 M HEPES pH7.4, 0.15M NaCl, 3 mM EDTA, 0.05% v/v Surfactant P20, 0.1 mg/mL BSA). To assess whether 2 antibodies were able to compete with one another for binding to their respective epitopes on biotinylated recombinant human GFRα3 expressed with a C-terminal myc-myc-hexahistidine tag (biotin-hGFRα3-mmH; SEQ ID:370), around ˜1.2 nm of biotin-hGFRα3-mmH was first captured onto streptavidin-coated Octet sensor tips (Fortebio Inc, #18-5019) by submerging the tips for 1 minute into a 10 μg/mL solution of biotin-hGFRα3-mmH. The antigen coated sensor tips were then placed into wells containing 25 μg/mL solution of a first anti-GFRα3 monoclonal antibody for 4 minutes to saturate the biotin-hGFRα3-mmH surface. The sensor tips were then subsequently dipped into wells containing 25 μ/mL solution of a second anti-GFRα3 monoclonal antibody. The sensor tips were washed in Octet HBST buffer in between every step of the experiment. The real-time binding response was monitored during the course of the experiment and the binding response at the end of every step was recorded as shown in FIG. 9. The response of mAb-2 binding to biotin-hGFRα3-mmH pre-complexed with the first antibody was compared and competitive/non-competitive behavior of different anti-GFRα3 monoclonal antibodies was determined.

[5] = biological target: T3, human GFRα3 expressed with a C-terminal …; assay: Octet cross-competition; biotin-hGFRα3-mmH pre-saturated with first antibody H4H2212N
Description: as §1

T3 sequence (O60609 other isoform, or with tags, fused parts or gaps limits assumed): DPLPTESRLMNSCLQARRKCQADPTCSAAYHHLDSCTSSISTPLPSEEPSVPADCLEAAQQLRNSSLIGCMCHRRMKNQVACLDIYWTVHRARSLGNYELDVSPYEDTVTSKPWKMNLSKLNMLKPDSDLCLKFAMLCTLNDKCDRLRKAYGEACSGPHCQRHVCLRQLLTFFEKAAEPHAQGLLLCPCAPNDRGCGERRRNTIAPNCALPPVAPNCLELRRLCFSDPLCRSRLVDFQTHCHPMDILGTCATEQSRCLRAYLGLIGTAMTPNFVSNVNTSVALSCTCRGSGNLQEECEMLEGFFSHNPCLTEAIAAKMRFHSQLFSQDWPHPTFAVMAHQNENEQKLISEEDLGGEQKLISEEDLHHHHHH

B1: H4H2345S (antibody, human IgG4, V domains shown)
VH: EVQLVESGGGLVRPGRSLRLSCAASGFTFDNYAMHWVRQVPGKGLEWVSGITWNSVSLGYADSVKGRFTISRDNAQNSLYLQMNSLRTVDTALYYCAKDRWGGSYYFDFWGQGTLVTVSS
VL: DIVMTQSPSSLSASVGDRVTITCRASQGISNYLAWYQQKPGKVPKLLIYSASTLQSGVPSRFSGSGSGTDFTLTISNLQPEDFATFFCQKYNSAPTFGGGTKVEIK
notes: human IgG4 Fc (H4H)
[1]
  Kd: 26.3 nM
  koff: 0.00353 s⁻¹
  kon: 134000 M⁻¹ s⁻¹
  t1/2: 3 min
[2]
  Kd: 28.7 nM
  koff: 0.00279 s⁻¹
  kon: 97500 M⁻¹ s⁻¹
  t1/2: 4 min
[3]
  IC50 (SRE-luc, HEK293/hGFRα3/hRET cells, 100 pM hARTEMIN-mmH): 26 nM

B2: H4H2341S (antibody, human IgG4, V domains shown)
VH: EVQLVESGAEVKKSGSSVKVSCKASGGTFSRYAISWVRQAPGQGLEWMGGIIPLFGTLNYAQKFQGRVTLTTDESTSTAYMELSSLRSEDTAVYYCAVFYYGSGSYRNWFDPWGQGTLVTVSS
VL: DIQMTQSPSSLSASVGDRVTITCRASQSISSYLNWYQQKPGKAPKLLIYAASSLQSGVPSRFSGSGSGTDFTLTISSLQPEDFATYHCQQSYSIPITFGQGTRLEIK
notes: human IgG4 Fc (H4H)
[1]
  Kd: 3.53 nM
  koff: 0.000508 s⁻¹
  kon: 144000 M⁻¹ s⁻¹
  t1/2: 23 min
[2]
  Kd: 1.39 nM
  koff: 0.00013 s⁻¹
  kon: 93800 M⁻¹ s⁻¹
  t1/2: 89 min
[3]
  IC50 (SRE-luc, HEK293/hGFRα3/hRET cells, 100 pM hARTEMIN-mmH): 7.1 nM

B3: H4H2294S (antibody, human IgG4, V domains shown)
VH: EVQLVESGGGLVQPGGSLRLSCAASGFTFSSYAMSWVRQAPGKGLEWVSVISGSGGSTYYADAVKGRFTISRDNSKHTLYLQMNSLRAEDTAVYYCTKPSSYSSSNFYYGMDVWGQGSTVTVSS
VL: DIQLTQSPSSVSASVGDRVTITCRASQGISSWLAWYQQKPGKAPKLLIYAASSLQSGVPSRFSGSGSGTDFTLTISSLQPEDFATYYCQQTNSFPFPFGPGTKVDIK
notes: human IgG4 Fc (H4H)
[1]
  Kd: 2.25 nM
  koff: 0.000974 s⁻¹
  kon: 433000 M⁻¹ s⁻¹
  t1/2: 12 min
[2]
  Kd: 0.627 nM
  koff: 0.000204 s⁻¹
  kon: 325000 M⁻¹ s⁻¹
  t1/2: 57 min
[4]
  binding response of second antibody (nm): 0.02 nm
[5]
  binding response of second antibody (nm): 2.12 nm

B4: H4H2364S (antibody, human IgG4, V domains shown)
VH: EVQLVESGGGLEQPGGSLRLSCAASGFTFSSYVMSWVRQVPGKGLEWVSVISGSGGSTYYADSVKGRFTISRDNSKNTLYLQMNSLRAEDTAVYYCAKPSSYSSSNFHYGMDVWGQGTTVTVSS
VL: DIQMTQSPYSVSASVGDRVTITCRASQGISSWLAWYQQKPGRAPKLLIYAASSLQSGVPSRFSGSGSGTDFTLTISSLQPEDFATYYCQKTNSFPFTFGPGTKVEIK
notes: human IgG4 Fc (H4H)
[1]
  Kd: 5.14 nM
  koff: 0.000861 s⁻¹
  kon: 168000 M⁻¹ s⁻¹
  t1/2: 13 min
[2]
  Kd: 1.06 nM
  koff: 0.00013 s⁻¹
  kon: 122000 M⁻¹ s⁻¹
  t1/2: 89 min
[3]
  IC50 (SRE-luc, HEK293/hGFRα3/hRET cells, 100 pM hARTEMIN-mmH): 2.3 nM

B5: H4H2344S (antibody, human IgG4, V domains shown)
VH: EVQLVESGGGVVQPGRSLRLSCAASGFSFSDYVMHWVRQAPGKGLEWVASIWFDGSNEFYADSVKGRFTISRDNSKNTLFLQMNSLRAEDTAVYYCAKKGVLVATSAFDIWGQGTMVTVSS
VL: DIQMTQSPSSLSASVGDRVTITCRASQSINNYLNWYHQKPGKAPKLLIYAASSLQSGVPSRFSGSGSGTDYTLTISSLQPEDFGNYYCQQSYRTSMYTFGQGTKVEIK
notes: human IgG4 Fc (H4H)
[1]
  Kd: 3.57 nM
  koff: 0.000575 s⁻¹
  kon: 161000 M⁻¹ s⁻¹
  t1/2: 20 min
[2]
  Kd: 1.1 nM
  koff: 0.000115 s⁻¹
  kon: 104000 M⁻¹ s⁻¹
  t1/2: 101 min
[3]
  IC50 (SRE-luc, HEK293/hGFRα3/hRET cells, 100 pM hARTEMIN-mmH): 48 nM

B6: H4H2354S (antibody, human IgG4, V domains shown)
VH: QVQLVESGGGVVQPGRSLRLSCAASGFSFSDYVMHWVRQAPGKGLEWVASIWFDGSNEFYADSVKGRFTISRDNSKNTLFLQMNSLRAEDTAVYYCAKKGVLVATSAFDIWGQGTMVTVSS
VL: DIQLTQSPSSLSASVGDRVTITCRASQSINNYLNWYHQKPGKAPKLLIYAASSLQSGVPSRFSGSGSGTDYTLTISSLQPEDFGNYYCQQSYRTSMYTFGQGTKVEIK
notes: human IgG4 Fc (H4H); also called H4H2354S-1
[1]
  Kd: 2.78 nM
  koff: 0.000435 s⁻¹
  kon: 157000 M⁻¹ s⁻¹
  t1/2: 27 min
[2]
  Kd: 0.574 nM
  koff: 6.23e-05 s⁻¹
  kon: 109000 M⁻¹ s⁻¹
  t1/2: 185 min
[3]
  IC50 (SRE-luc, HEK293/hGFRα3/hRET cells, 100 pM hARTEMIN-mmH): 22 nM

B7: H4H2346S (antibody, human IgG4, V domains shown)
VH: QVQLVESGGGVVQPGRSLRLSCAASGFSFSDYVMHWVRQAPGKGLEWVASIWFDGSNEFYADSVKGRFTISRDNSKNTLFLQMNSLRAEDTAVYYCAKKGVLVATSAFDIWGQGTMVTVSS
VL: EIVMTQSPSSLSASVGDRVTITCRASQSINNYLNWYHQKPGKAPKLLIYAASSLQSGVPSRFSGSGSGTDYTLTISSLQPEDFGNYYCQQSYRTSMYTFGQGTKVEIK
notes: human IgG4 Fc (H4H)
[1]
  Kd: 3.34 nM
  koff: 0.000511 s⁻¹
  kon: 153000 M⁻¹ s⁻¹
  t1/2: 23 min
[2]
  Kd: 0.556 nM
  koff: 5.98e-05 s⁻¹
  kon: 108000 M⁻¹ s⁻¹
  t1/2: 193 min
[3]
  IC50 (SRE-luc, HEK293/hGFRα3/hRET cells, 100 pM hARTEMIN-mmH): 26 nM

B8: H4H2293P (antibody, human IgG4, V domains shown)
VH: QVQLVESGGGVVQPGRSLRLSCAASGFSFSDYVMHWVRQAPGKGLEWVASIWFDGSNELYADSVKGRFTISRDNSKNTLFLQMNSLRAEDTAVYYCAKKGVLVATSAFHIWGQGTMVTVSS
VL: AIQMTQSPSSLSASVGDRVTITCRASQNINNYLNWYHQKPGKAPNLLIYAASSLQSGVPSRFSGSGSGTDYTLTISSLQPEDFGNYYCQQSYSTSMYTFGQGTKLEIK
notes: human IgG4 Fc (H4H)
[1]
  Kd: 0.358 nM
  koff: 0.000158 s⁻¹
  kon: 441000 M⁻¹ s⁻¹
  t1/2: 73 min
[2]
  Kd: 0.144 nM
  koff: 4.17e-05 s⁻¹
  kon: 290000 M⁻¹ s⁻¹
  t1/2: 277 min
[3]
  IC50 (SRE-luc, HEK293/hGFRα3/hRET cells, 100 pM hARTEMIN-mmH): 20 nM
